# Source: US20210317220A1 (Janssen / Centocor, published 2021)
# T1: rhesus monkey soluble CD154 (rhesus monkey, UniProt P63304 113-261, limits assumed)
# T1 construct: Endogenous plasma protein measured in dosed animals; also called sCD154; free sCD154
# T1 sequence (looked up): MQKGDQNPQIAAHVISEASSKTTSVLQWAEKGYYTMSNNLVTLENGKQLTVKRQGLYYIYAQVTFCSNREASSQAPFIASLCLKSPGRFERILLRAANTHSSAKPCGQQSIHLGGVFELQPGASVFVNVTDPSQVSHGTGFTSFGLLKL
# T2: soluble human CD154 (human, UniProt P29965 113-261)
# T2 construct: also called sCD154; shCD154
# T2 sequence: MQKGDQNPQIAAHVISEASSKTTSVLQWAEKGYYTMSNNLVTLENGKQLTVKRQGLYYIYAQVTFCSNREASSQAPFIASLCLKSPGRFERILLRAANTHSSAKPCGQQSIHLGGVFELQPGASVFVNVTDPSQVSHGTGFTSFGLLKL
# Experiments:
# [1] = biological target: T1, rhesus monkey soluble CD154; experiment: free and total sCD154 in platelet poor plasma of rhesus monkeys dosed IV or SC (3-month study)
# Protocol: Rhesus monkeys were administered the anti-CD154 antibody C4LB231 intravenously (IV) or subcutaneously (SC) once weekly for 13 weeks. The control vehicle was 0.9% sterile saline (NaCl). Animals were dosed by IV or SC injection as described above for the 8-week study on days 1, 8, 15, 22, 29, 36, 43, 50, 57, 64, 71, 78, and 85 for a total of 13 doses. On days 29, 57, and 155 (recovery study animals only) animals received an intramuscular injection of a 1 mg dose of KLH antigen to the left thigh for a KLH-antigen challenge study. Blood samples were collected from the animals and evaluated as described below.
# Free and total soluble CD154 (sCD154) were assessed in platelet poor plasma samples. […] The extent of reduction was greater at the higher dose levels. A dose-dependent decrease in free sCD154 coupled with dose-dependent increase in total sCD154 indicated good target engagement in plasma.
# soluble human CD154 = biological target: T2, soluble human CD154; experiment: ELISA of free and total sCD154 in platelet poor plasma of dosed human participants
# Protocol: Mean free and total soluble CD154 (sCD154) concentrations were determined by ELISA in platelet poor plasma samples obtained from the participants administered C4LB231 according to the study described in Example 2. Free sCD154 concentration remained undetectable until 14 days after dosing indicating suppression of the target of […].
binder,measurement,setting,value
"anti-CD154 antibody C4LB231 (antibody, human IgG1, kappa, V domains shown, Human IgG1σ mAb (Fc-silencing mutations L234A, L235A, G237A, P238S, H268A, A330S, P331S); also called C4BL231; C4BL231 (Fc silent)) VH: QVQLVQSGAEVKKPGSSVKVSCKASGGTFSSYGISWVRQAPGQGLEWMGWISPIFGNTNYAQKFQGRVTITADESTSTAYMELSSLRSEDTAVYYCARSRYYGDLDYWGQGTLVTVSS VL: DIQMTQSPSSLSASVGDRVTITCRASQSISSYLNWYQQKPGKAPKLLIYYANSLQSGVPSRFSGSGSGTDFTLTISSLQPEDFATYYCQQSDSIPWTFGQGTKVEIKR",binding result,[1],binds
same,binding result,soluble human CD154,binds
